Laboratory results taken from PMC3462190, “A Peptidic Unconjugated GRP78/BiP Ligand Modulates the Unfolded Protein Response and Induces Prostate Cancer Cell Death” (PLoS ONE, 2012).
Where no end group is shown, it is not given here.

tested on: GRP78/BiP; assay: In vivo luciferase refolding assay in HEK-293 cells; assay type: cell-based; conditions: heat shock 45°C 30 min, relative to non-heat-shocked cells, mean of three independent experiments ± SEM
Protocol: In vivo refolding assay was performed essentially according to the method described by. HEK-293 in a 70%-confluent 10 cm dish were transfected with β-actin-fire fly luciferase construct (2 µg), pcMV6-GRP78 (3 µg), Bag-1 or Bag-1 peptides in pcDNA3.1-HA (6 µg) and Renilla luciferase construct (0.5 µg) for equal transfection control. Two days after transfection the cells were divided into two and incubated in heat shock buffer (MOPS 20 mM and cycloheximide 20 µg/ml) for 30 min at 37°C. One half of the transfected cells was heat shocked for 30 min at 45°C and allowed to recover at 37°C for 30 min. The other half was left untreated and used as control. At the end of the experiments, the cells were harvested, lysed and luciferase activity was measured. The activity measured for the non-heat shocked cells was set as 100% of refolded luciferase and the activity measurements of the heat shocked cells were expressed relative this value.
Figure 2 Identification of Bag-1 peptide interfering with the action of GRP78/BiP. […] Depicted in blue and red are the ubiquitin-like domain and the BAG domain respectively. B. Identification of the Bag-1 peptide binding to GRP78/BiP. […] Western blot analysis with an HA antibody to detected the Bag-1 mutants is shown. […] Thereafter luciferase activity was measured. Results are expressed as percentage of refolding activity relative to non-heat-shocked cells and presented as bar charts of the average of three independent experiments ± SEM. *p<0.05.
Figure 6 Selectivity of action of the Bag-1 peptide. […] Fluorescence polarization (FP) assays with a 10 nM FITC-labeled 7-mer Bag-1 peptide and dilutions of the GST-fused substrate binding domain of GRP78 in 60 µl of Tris-GSH buffer (50 mM Tris, 10 mM reduced glutathione and 0.1% BSA, pH 8.0). Triplicate samples were measured after 5 h of incubation at room temperature with an Infinite F-200 reader (Tecan) with excitation at 490 nm and emission at 535 nm. Binding constants were determined from three independent experiments using non-linear regression in Sigma Plot 10.0. […]

| Molecule | GRP78/BiP refolding activity (luciferase) |
| --- | --- |
| 19-mer: Bag-1L 202–220 (TPLSALGIQDGCRVMLIGK; not fully specified) | inhibited the ability of GRP78/BiP to refold denatured protein |
| Bag-1: cochaperone Bag-1, HA-tagged (pcDNA3.1-HA-Bag-1), or endogenous (protein, left off: HA, end not stated, kept, cochaperone Bag-1, HA-tagged (pcDNA3.1-HA-Bag-1), or endogenous) TPLSALGIQDGCRVMLIGKKNSPQEEVELKKLKHLEKSVEKIADQLEELNKELTGIQQGFLPKDLQAE | reduced to the control level |
| Bag-1 peptide: internal sequence of 68 amino acids of Bag-1 (Bag1-L 202–269), HA-tagged, expressed from pcDNA3 (also: HA tag, end not given here) TPLSALGIQDGCRVMLIGKKNSPQEEVELKKLKHLEKSVEKIADQLEELNKELTGIQQGFLPKDLQAE | reduced to the control level |
